Experimental findings from US20090232730A1, “METHOD OF PRODUCING IMMUNOLIPOSOMES AND COMPOSITIONS THEREOF” (IMMUNE DISEASE INSTITUTE, INC., priority 2006, published 2009) are described below.

{P} = phosphate

Series [1] deals with integrin Mac-1 (αMβ2) (human) (UniProt P11215). Put plainly: flow cytometry on K562 cells expressing Mac-1; carrier after lyophilization and reconstitution (no cryoprotectant). On the technique in general: In flow cytometry, cells or beads pass a laser one at a time.
The target is the same in series [2]. Put plainly: flow cytometry on K562 cells expressing Mac-1; carrier before lyophilization.
For series [3] the target is unchanged. Description: flow cytometry on K562 cells expressing Mac-1; carrier after lyophilization and reconstitution.
Series [4] has the same target. Put plainly: cell-based or functional assay.
For another series, the system named is K562 mock cells. Description: MTT cytotoxicity assay. It counts as cell-based, human. As to conditions: MMC formulations. The method, then: K562 cells (either K562 mock cells or K562 Mac-1 cells, stably transfected with Mac-1 integrin) were grown in 1×RPMI supplemented with 10% FBS. Exponentially growing cells were seeded at 2.5×10^5/ml in 24-well plates and either left untreated or treated with graded dosages of free mitomycin (MMC) or equivalent doses of MMC formulated in liposomes. The treatment media was selected from the following MMC formulations: (i) the test system, MMC-loaded tHA-CBRM1/29, (ii) MMC-loaded ULV-HA, (iii) free MMC, (iv) free MMC dissolved in a suspension of empty tHA-CBRM1/29 and (v) free MMC dissolved in a suspension of empty ULV-HA. In addition, there were 3 drug-free controls, consisting of: (vi) no addition (i.e., only the serum-supplemented growth medium), (vii) empty tHA-CBRM1/29 and (viii) empty ULV. In all formulations, the solvent was serum-supplemented cell growth medium. Cells were washed twice with Hepes-buffered saline (HBS) then re-incubated with drug-free media for additional 48 hours. Cells were spun down and re-suspended in 0.5 ml of MTT containing medium (0.5 mg/ml), and incubated at 37° C. for 1 h. […] After 5 min at room temperature, samples were spun down and 250-μl aliquots were used for absorbance measurements. Cell viability was measured as the difference in the absorbance 550 and 620 nm. […] Data are expressed as a percent of the control healthy growing cells.
A general note: Tetrazolium assays rely on reduction of a dye to a coloured formazan, in cell work by metabolically active cells.

The next series relates to CD4. Put plainly: CD4 silencing in human primary CD4+ cells by flow cytometry. It is filed as cell-based. As to conditions: formulated in immunomicelles, 30 pmol-1000 pmol. As to the method: Human neutrophils or lymphocytes were isolated from freshly drawn blood as described (Carman et al. J. Immunology, 171 (2003) 6135-6144). CD4 blasts were generated by isolating CD4+ T cells from peripheral blood lymphocytes of normal donors by immunomagnetic beads (Miltenyi Biotech) as previously reported (Novina et al. Nature Med. 2002; 8(7): 681-6) and culturing them in RPMI 1640 containing 10% FCS for 3 days in the presence of 4 μg/mL phytohemagglutinin (PHA), then expend the cells with the same media (without PHA) but with IL-2 at 10 ng/mL for 3 more days.
siRNA transfections were preformed with different formulations of siRNA targeted against human CD4, siRNA-luciferase, or siRNA-cy3. As a positive control we used Fugene 6 and ExGen 500 (PEI) transfection reagents. Cells were seeded in 24 or 96 well plates at a density of 5000−2×10^5 cells/well. […]

The target in series [5] is integrin Mac-1 (αMβ2) (human) (UniProt P11215). Put plainly: flow cytometry on K562 cells expressing Mac-1; free antibody before lyophilization.
The target is the same in series [6]. Description: flow cytometry on K562 cells expressing Mac-1; free antibody after lyophilization and reconstitution.

As for ULV-CBRM1/29-cy3 (antibody), the mean fluorescence intensity stood at 5.6 in series [1] and 175 in series [2].

As for tHA-CBRM1/29-cy3 (antibody), the results for the MFI in series [3] and in series [2] were 172 and 161, respectively. The same compound displayed an IC50 (MTT cytotoxicity assay, MMC entrapped in the carrier, K562 cells expressing Mac-1) in series [4] of 1750 nM. Moreover, the fold difference of IC50 against ULV-HA (no antibody), MTT cytotoxicity assay on K562 cells expressing Mac-1 in series [4] turned out to be 100 fold.

`CO[C@@]12[C@H](COC(N)=O)C3=C(C(=O)C(C)=C(N)C3=O)N1C[C@@H]1N[C@@H]12` [free MMC, mitomycin C]: the cell survival entry in the series with K562 mock cells was “no significant changes in the cell survival”.

For “CD4-siRNA: siRNA targeted against human CD4, sense 5′-P.GAUCAAGAGACUCCUCAGUUU-3′, antisense 5′-P.ACUGAGGAGUCUCUUGAUCUU-3′ (RNA, 5' {P}, backbone not given here)”, in the series on CD4, the “plateau of CD4 silencing dose response curve” value came to 500 pmol.

CBRM1/29-cy3 (antibody): the MFI came out at 82 in series [5] and 73 in series [6].
